Experimental data reported in patent US6140364A, “Arachidonic acid metabolite, 16-HETE” (The University of Vermont and State Agricultural College, priority 1996, dated 2000).
Substitutions are numbered along the chain they refer to. Names and notes keep the numbering of the source.

Assays:
[1] = tested on: rabbit model of thromboembolic stroke (brain infarct); assay: Brain infarct size in rabbit model of thromboembolic stroke; format: in vivo; conditions: 16-HETE 1 μg/kg per minute for 1 hour from 1 h after embolization, tPA 6.3 mg/kg between 3 and 5 hours
Protocol: New Zealand rabbits of either sex, weighing 3-4 kilograms were used for the study. Prior to the start of the experiment, the rabbits were divided into three groups, those that were administered either 16-HETE at a rate of 1 μg/kg per minute for one hour, tPA (Genentech, Inc., San Francisco, Calif.) at a concentration of 6.3 mg/kg. 16-HETE plus tPA, or vehicle.
On the day of treatment the animals were fasted for 12 hours with free access to water and then anesthetized with an intramuscular solution of ketamine (50 mg/kg), acepromazine (20 mg) and xylazine (5 mg/kg). This solution was subsequently used to maintain a surgical depth of anesthesia as determined by responses to various physiologic and autonomic stimuli, including mean arterial pressure and response to paw pinch.
The animals were prepared for surgery by introducing femoral venous and arterial catheters (PE50 and 90, respectively; Clay Adams, Parsippany, N.J.). […]
Following determination of all base line values the right common carotid bifurcation is exposed, the internal carotid artery (ICA) isolated, a micro-arteriotomy performed and the 15-mm clot embolized intracranially via the ICA. […] Post embolization rCBF is then determined and the experiment continued if rCBF is reduced to 15 cc /100 gm/minute in at least one of the PT-IR electrodes within the embolized hemisphere. […]

[2] = tested on: fibrin; conditions: compared with native tPA or other variants; cited from earlier work
[3] = compared with native tPA; cited from earlier work

B1: tPA: tissue plasminogen activator (Genentech, Inc.), thrombolytic agent (protein, UniProt P00750 36-562, looked up)
Tissue-type plasminogen …: SYQVICRDEKTQMIYQQHQSWLRPVLRSNRVEYCWCNSGRAQCHSVPVKSCSEPRCFNGGTCQQALYFSDFVCQCPEGFAGKCCEIDTRATCYEDQGISYRGTWSTAESGAECTNWNSSALAQKPYSGRRPDAIRLGLGNHNYCRNPDRDSKPWCYVFKAGKYSSEFCSTPACSEGNSDCYFGNGSAYRGTHSLTESGASCLPWNSMILIGKVYTAQNPSAQALGLGKHNYCRNPDGDAKPWCHVLKNRRLTWEYCDVPSCSTCGLRQYSQPQFRIKGGLFADIASHPWQAAIFAKHRRSPGERFLCGGILISSCWILSAAHCFQERFPPHHLTVILGRTYRVVPGEEEQKFEVEKYIVHKEFDDDTYDNDIALLQLKSDSSRCAQESSVVRTVCLPPADLQLPDWTECELSGYGKHEALSPFYSERLKEAHVRLYPSSRCTSQHLLNRTVTDNMLCAGDTRSGGPQANLHDACQGDSGGPLVCLNDGRMTLVGIISWGLGCGQKDVPGVYTKVTNYLDWIRDNMRP
- brain infarct size [1]: significantly larger than the 16-HETE group

B2: TNK tPA: triple mutant variant of wild type tPA: T103N, N117Q, KHRR (296-299) AAAA tPA (protein, UniProt P00750 36-562, looked up, variant T103N N117Q K296A H297A R298A R299A)
Tissue-type plasminogen …: B1 Tissue-type plasminogen … with T103N, N117Q, K296A, H297A, R298A, R299A
- potency / effectiveness [2]: most effective of the triple mutant variants

B3: C84S tPA: tPA variant in which cysteine at position 84 of the growth factor domain of native tPA is replaced by serine (protein, UniProt P00750 36-562, looked up, variant C84S)
Tissue-type plasminogen …: B1 Tissue-type plasminogen … with C84S
- in vivo / circulatory half life [3]: longer in vivo half life than native tPA
- potency / effectiveness [2]: retains the functional activity of native tPA
